Laboratory results published in the supplement of paper PMC5998384.

How the values were obtained:
HeLa Kyoto [1] = test: solubility in G1/S (NP-40 vs SDS abundance) (log2 ratio); higher = more soluble; details: cell cycle stage: G1/S
HeLa Kyoto [2] = test: solubility change mitosis vs G1/S (difference of NP-40 vs SDS log2 ratios) (log2 ratio difference); higher = more soluble in mitosis
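Wherever solubility change mitosis vs G1/S (difference of NP-40 vs SDS log2 ratios) is given: synchronized HeLa Kyoto cells (double thymidine block for G1/S, nocodazole release for mitosis), protein amounts in NP-40 versus SDS lysates quantified by mass spectrometry, three biological replicates.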
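Wherever solubility in G1/S (NP-40 vs SDS abundance) is given: HeLa Kyoto cells arrested at G1/S by double thymidine block, proteins quantified by TMT10plex mass spectrometry in mild NP-40 versus SDS extracts, three biological replicates.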

## MASPEPRRGGDGAAQAARKTRVEANSPLPKNSGSLNEAEALNPEVTLSSEGSLNLEDILYLEDTGDLDETLYVQETEKAEEALYIEEAMQPDEALHVEEPGNPEETVCVEETTEPDRIQFVEGPVEPGKPTSPEHVVYEGETVTRAEKSNPEESLRAEQSPSMEENLSIEDLELLEGRFQQCVQAVAQLEEERDQLIHELVLLREPALQEVQQVHQDILAAYKLHAQAELERDGLREEIRLVKQKLFKVTKECVAYQYQLECRQQDVAQFADFREVLTTRATQLSEELAQLRDAYQKQKEQLRQQLEAPPSQRDGHFLQESRRLSAQFENLMAESRQDLEEEYEPQFLRLLERKEAGTKALQRTQAEIQEMKEALRPLQAEARQLRLQNRNLEDQIALVRQKRDEEVQQYREQLEEMEERQRQLRNGVQLQQQKNKEMEQLRLSLAEELSTYKAMLLPKSLEQADAPTSQAGGMETQSQGAV [SYNC]
HeLa Kyoto [1]
  solubility in G1/S (log2): 0.502
HeLa Kyoto [2]
  solubility change mitosis (log2): 0.0968

## MASRWQNMGTSVRRRSLQHQEQLEDSKELQPVVSHQETSVGALGSLCRQFQRRLPLRAVNLNLRAGPSWKRLETPEPGQQGLQAAARSAKSALGAVSQRIQESCQSGTKWLVETQVKARRRKRGAQKGSGSPTHSLSQKSTRLSGAAPAHSAADPWEKEHHRLSVRMGSHAHPLRRSRREAAFRSPYSSTEPLCSPSESDSDLEPVGAGIQHLQKLSQELDEAIMAEERKQALSDRQGFILKDVYASP [FAM64A]
HeLa Kyoto [1]
  solubility in G1/S (log2): 0.000622
HeLa Kyoto [2]
  solubility change mitosis (log2): 0.481

## MASSDLEQLCSHVNEKIGNIKKTLSLRNCGQEPTLKTVLNKIGDEIIVINELLNKLELEIQYQEQTNNSLKELCESLEEDYKDIEHLKENVPSHLPQVTVTQSCVKGSDLDPEEPIKVEEPEPVKKPPKEQRSIKEMPFITCDEFNGVPSYMKSRLTYNQINDVIKEINKAVISKYKILHQPKKSMNSVTRNLYHRFIDEETKDTKGRYFIVEADIKEFTTLKADKKFHVLLNILRHCRRLSEVRGGGLTRYVIT [SKA1]
HeLa Kyoto [1]
  solubility in G1/S (log2): 0.713
HeLa Kyoto [2]
  solubility change mitosis (log2): -0.0548

## MASSEVARHLLFQSHMATKTTCMSSQGSDDEQIKRENIRSLTMSGHVGFESLPDQLVNRSIQQGFCFNILCVGETGIGKSTLIDTLFNTNFEDYESSHFCPNVKLKAQTYELQESNVQLKLTIVNTVGFGDQINKEESYQPIVDYIDAQFEAYLQEELKIKRSLFTYHDSRIHVCLYFISPTGHSLKTLDLLTMKNLDSKVNIIPVIAKADTVSKTELQKFKIKLMSELVSNGVQIYQFPTDDDTIAKVNAAMNGQLPFAVVGSMDEVKVGNKMVKARQYPWGVVQVENENHCDFVKLREMLICTNMEDLREQTHTRHYELYRRCKLEEMGFTDVGPENKPVSVQETYEAKRHEFHGERQRKEEEMKQMFVQRVKEKEAILKEAERELQAKFEHLKRLHQEERMKLEEKRRLLEEEIIAFSKKKATSEIFHSQSFLATGSNLRKDKDRKNSNFL [SEPT10]
HeLa Kyoto [1]
  solubility in G1/S (log2): -0.132
HeLa Kyoto [2]
  solubility change mitosis (log2): -0.0981

## MASSSGSSPRPAPDENEFPFGCPPTVCQDPKEPRALCCAGCLSENPRNGEDQICPKCRGEDLQSISPGSRLRTQEKAHPEVAEAGIGCPFAGVGCSFKGSPQSVQEHEVTSQTSHLNLLLGFMKQWKARLGCGLESGPMALEQNLSDLQLQAAVEVAGDLEVDCYRAPCSESQEELALQHFMKEKLLAELEGKLRVFENIVAVLNKEVEASHLALATSIHQSQLDRERILSLEQRVVELQQTLAQKDQALGKLEQSLRLMEEASFDGTFLWKITNVTRRCHESACGRTVSLFSPAFYTAKYGYKLCLRLYLNGDGTGKRTHLSLFIVIMRGEYDALLPWPFRNKVTFMLLDQNNREHAIDAFRPDLSSASFQRPQSETNVASGCPLFFPLSKLQSPKHAYVKDDTMFLKCIVETST [TRAF1]
HeLa Kyoto [1]
  solubility in G1/S (log2): 0.254
HeLa Kyoto [2]
  solubility change mitosis (log2): -0.305

## MATFVSELEAAKKNLSEALGDNVKQYWANLKLWFKQKISKEEFDLEAHRLLTQDNVHSHNDFLLAILTRCQILVSTPDGAGSLPWPGGSAAKPGKPKGKKKLSSVRQKFDHRFQPQNPLSGAQQFVAKDPQDDDDLKLCSHTMMLPTRGQLEGRMIVTAYEHGLDNVTEEAVSAVVYAVENHLKDILTSVVSRRKAYRLRDGHFKYAFGSNVTPQPYLKNSVVAYNNLIESPPAFTAPCAGQNPASHPPPDDAEQQAALLLACSGDTLPASLPPVNMYDLFEALQVHREVIPTHTVYALNIERIITKLWHPNHEELQQDKVHRQRLAAKEGLLLC [TADA1]
HeLa Kyoto [1]
  solubility in G1/S (log2): 0.289
HeLa Kyoto [2]
  solubility change mitosis (log2): -0.0314

## MATPGPVIPEVPFEPSKPPVIEGLSPTVYRNPESFKEKFVRKTRENPVVPIGCLATAAALTYGLYSFHRGNSQRSQLMMRTRIAAQGFTVAAILLGLAVTAMKSRP [HIGD2A]
HeLa Kyoto [1]
  solubility in G1/S (log2): -0.399
HeLa Kyoto [2]
  solubility change mitosis (log2): 0.482

## MATPRGRTKKKASFDHSPDSLPLRSSGRQAKKKATETTDEDEDGGSEKKYRKCEKAGCTATCPVCFASASERCAKNGYTSRWYHLSCGEHFCNECFDHYYRSHKDGYDKYTTWKKIWTSNGKTEPSPKAFMADQQLPYWVQCTKPECRKWRQLTKEIQLTPQIAKTYRCGMKPNTAIKPETSDHCSLPEDLRVLEVSNHWWYSMLILPPLLKDSVAAPLLSAYYPDCVGMSPSCTSTNRAAATGNASPGKLEHSKAALSVHVPGMNRYFQPFYQPNECGKALCVRPDVMELDELYEFPEYSRDPTMYLALRNLILALWYTNCKEALTPQKCIPHIIVRGLVRIRCVQEVERILYFMTRKGLINTGVLSVGADQYLLPKDYHNKSVIIIGAGPAGLAAARQLHNFGIKVTVLEAKDRIGGRVWDDKSFKGVTVGRGAQIVNGCINNPVALMCEQLGISMHKFGERCDLIQEGGRITDPTIDKRMDFHFNALLDVVSEWRKDKTQLQDVPLGEKIEEIYKAFIKESGIQFSELEGQVLQFHLSNLEYACGSNLHQVSARSWDHNEFFAQFAGDHTLLTPGYSVIIEKLAEGLDIQLKSPVQCIDYSGDEVQVTTTDGTGYSAQKVLVTVPLALLQKGAIQFNPPLSEKKMKAINSLGAGIIEKIALQFPYRFWDSKVQGADFFGHVPPSASKRGLFAVFYDMDPQKKHSVLMSVIAGEAVASVRTLDDKQVLQQCMATLRELFKEQEVPDPTKYFVTRWSTDPWIQMAYSFVKTGGSGEAYDIIAEDIQGTVFFAGEATNRHFPQTVTGAYLSGVREASKIAAF [KDM1B]
HeLa Kyoto [1]
  solubility in G1/S (log2): -0.371
HeLa Kyoto [2]
  solubility change mitosis (log2): 0.0563

## MATVGAPRHFCRCACFCTDNLYVARYGLHVRFRGEQQLRRDYGPILRSRGCVSAKDFQQLLAELEQEVERRQRLGQESAARKALIASSYHPARPEVYDSLQDAALAPEFLAVTEYSVSPDADLKGLLQRLETVSEEKRIYRVPVFTAPFCQALLEELEHFEQSDMPKGRPNTMNNYGVLLHELGLDEPLMTPLRERFLQPLMALLYPDCGGGRLDSHRAFVVKYAPGQDLELGCHYDNAELTLNVALGKVFTGGALYFGGLFQAPTALTEPLEVEHVVGQGVLHRGGQLHGARPLGTGERWNLVVWLRASAVRNSLCPMCCREPDLVDDEGFGDGFTREEPATVDVCALT [OGFOD2]
HeLa Kyoto [1]
  solubility in G1/S (log2): 0.182
HeLa Kyoto [2]
  solubility change mitosis (log2): 0.112

## MAVLGVQLVVTLLTATLMHRLAPHCSFARWLLCNGSLFRYKHPSEEELRALAGKPRPRGRKERWANGLSEEKPLSVPRDAPFQLETCPLTTVDALVLRFFLEYQWFVDFAVYSGGVYLFTEAYYYMLGPAKETNIAVFWCLLTVTFSIKMFLTVTRLYFSAEEGGERSVCLTFAFLFLLLAMLVQVVREETLELGLEPGLASMTQNLEPLLKKQGWDWALPVAKLAIRVGLAVVGSVLGAFLTFPGLRLAQTHRDALTMSEDRPMLQFLLHTSFLSPLFILWLWTKPIARDFLHQPPFGETRFSLLSDSAFDSGRLWLLVVLCLLRLAVTRPHLQAYLCLAKARVEQLRREAGRIEAREIQQRVVRVYCYVTVVSLQYLTPLILTLNCTLLLKTLGGYSWGLGPAPLLSPDPSSASAAPIGSGEDEVQQTAARIAGALGGLLTPLFLRGVLAYLIWWTAACQLLASLFGLYFHQHLAGS [TMEM161A]
HeLa Kyoto [1]
  solubility in G1/S (log2): -0.184
HeLa Kyoto [2]
  solubility change mitosis (log2): -0.0501

## MAVTEASLLRQCPLLLPQNRSKTVYEGFISAQGRDFHLRIVLPEDLQLKNARLLCSWQLRTILSGYHRIVQQRMQHSPDLMSFMMELKMLLEVALKNRQELYALPPPPQFYSSLIEEIGTLGWDKLVYADTCFSTIKLKAEDASGREHLITLKLKAKYPAESPDYFVDFPVPFCASWTPQSSLISIYSQFLAAIESLKAFWDVMDEIDEKTWVLEPEKPPRSATARRIALGNNVSINIEVDPRHPTMLPECFFLGADHVVKPLGIKLSRNIHLWDPENSVLQNLKDVLEIDFPARAILEKSDFTMDCGICYAYQLDGTIPDQVCDNSQCGQPFHQICLYEWLRGLLTSRQSFNIIFGECPYCSKPITLKMSGRKH [FANCL]
HeLa Kyoto [1]
  solubility in G1/S (log2): 0.184
HeLa Kyoto [2]
  solubility change mitosis (log2): 0.0266

## MCCEKWSRVAEMFLFIEEREDCKILCLCSRAFVEDRKLYNLGLKGYYIRDSGNNSGDQATEEEEGGYSCGTAESHDSKGIGLDESELDSEAELMRSMGLPLQFGRITAHKDFEVSMNTRNKVKIKKKKHQKKYLDEIVQESWRKEYEEDDILASDDPSSIEQYENTRTYELQSKKDTETENPPVENTLSPKLEITEKWEKYWNEYGGGLLWQSWQEKHPGQALSSEPWNFPDTKEEWEQHYSQLYWYYLEQFQYWEAQGWTFDASQSCDTDTYTSKTEADDKNDEKCMKVDLVSFPSSPIMVDNDSSGTSDKDHSEILDGISNIKLNSEEVTQSQLDSCTSHDGHQQLSEVSSKRECPASGQSEPRNGGTNEESNSSGNTNTDPPAEDSQKSSGANTSKDRPHASGTDGDESEEDPPEHKPSKLKRSHELDIDENPASDFDDSGSLLGFKYGSGQKYGGIPNFSHRQVRYLEKNVKLKSKYLDMRRQIKMKNKHIFFTKESEKPFFKKSKILSKVEKFLTWVNKPMDEEASQESSSHDNVHDASTSSDSEEQDMSVKKGDDLLETNNPEPEKCQSVSSAGELETENYERDSLLATVPDEQDCVTQEVPDSRQAETEAEVKKKKNKKKNKKVNGLPPEIAAVPELAKYWAQRYRLFSRFDDGIKLDREGWFSVTPEKIAEHIAGRVSQSFKCDVVVDAFCGVGGNTIQFALTGMRVIAIDIDPVKIALARNNAEVYGIADKIEFICGDFLLLASFLKADVVFLSPPWGGPDYATAETFDIRTMMSPDGFEIFRLSKKITNNIVYFLPRNADIDQVASLAGPGGQVEIEQNFLNNKLKTITAYFGDLIRRPASET [TGS1]
HeLa Kyoto [1]
  solubility in G1/S (log2): 0.102
HeLa Kyoto [2]
  solubility change mitosis (log2): 0.247

## MDDIADRMRMDAGEVTLVNHNSVFKTHLLPQTGFPEDQLSLSDQQILSSRQGHLDRSFTCSTRSAAYNPSYYSDNPSSDSFLGSGDLRTFGQSANGQWRNSTPSSSSSLQKSRNSRSLYLETRKTSSGLSNSFAGKSNHHCHVSAYEKSFPIKPVPSPSWSGSCRRSLLSPKKTQRRHVSTAEETVQEEEREIYRQLLQMVTGKQFTIAKPTTHFPLHLSRCLSSSKNTLKDSLFKNGNSCASQIIGSDTSSSGSASILTNQEQLSHSVYSLSSYTPDVAFGSKDSGTLHHPHHHHSVPHQPDNLAASNTQSEGSDSVILLKVKDSQTPTPSSTFFQAELWIKELTSVYDSRARERLRQIEEQKALALQLQNQRLQEREHSVHDSVELHLRVPLEKEIPVTVVQETQKKGHKLTDSEDEFPEITEEMEKEIKNVFRNGNQDEVLSEAFRLTITRKDIQTLNHLNWLNDEIINFYMNMLMERSKEKGLPSVHAFNTFFFTKLKTAGYQAVKRWTKKVDVFSVDILLVPIHLGVHWCLAVVDFRKKNITYYDSMGGINNEACRILLQYLKQESIDKKRKEFDTNGWQLFSKKSQEIPQQMNGSDCGMFACKYADCITKDRPINFTQQHMPYFRKRMVWEILHRKLL [SENP1]
HeLa Kyoto [1]
  solubility in G1/S (log2): -0.531
HeLa Kyoto [2]
  solubility change mitosis (log2): 0.402
